Results reported in patent US20090170718.

Target: Botulinum neurotoxin type A light chain (BoNT/A-rLc) (UniProt P0DPI1)

AGCAGCACAGAGGTCAGATGNNNNNNNNNNNNNNNNNNNNNNNNNNNNNNNNNNNNNNNNNNNNNNNNNNNNNNNNNNNNCCTATGCGTGCTACCGTGAA [round 1 enriched aptamer pool (M-SELEX)]
Kd: 33 nM
